From the supplement of paper PMC9732359
± gives the uncertainty stated by the source.

Test: protein stability index of a GFP-peptide fusion (yeast GPS) (PSI 1-4); higher = more stable; sorted into four equal gates, so the index is relative within each strain
In short: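 The protein stability index combines read frequencies across sorting gates, each weighted by its gate number and then summed. To obtain those frequencies, a pooled yeast library of GFP fusions to tiled 17-residue yeast protein peptides, on a plasmid also expressing Cherry, was grown to mid-log phase in leucine-free medium. The cells were sorted into four equal gates by GFP/Cherry ratio before plasmid amplification by PCR and Illumina sequencing.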

## NNIRQAICRYANVIKAL [RRP4]
doa10∆
  protein stability index: 1.41 ± 0.11
pdr5∆
  protein stability index: 1.36 ± 0.07
san1∆
  protein stability index: 1.17 ± 0.14
ubr1∆
  protein stability index: 1.43 ± 0.14

## KDRISSCSSKEKTLVLE [SMC4]
doa10∆
  protein stability index: 2.58 ± 0.097
pdr5∆
  protein stability index: 2.6 ± 0.083
san1∆
  protein stability index: 2.45 ± 0.12
ubr1∆
  protein stability index: 2.88 ± 0.098

## TNNKKLLEKANNQQRLL [SMC3]
doa10∆
  protein stability index: 2.01 ± 0.11
pdr5∆
  protein stability index: 1.94 ± 0.091
san1∆
  protein stability index: 2.58 ± 0.18
ubr1∆
  protein stability index: 1.49 ± 0.063

## KGAGLSMGTMICGYTRK [PRE2]
doa10∆
  protein stability index: 1.64 ± 0.16
pdr5∆
  protein stability index: 1.27 ± 0.17
ubr1∆
  protein stability index: 1.11 ± 0.17

## QLLIIEKEWENAIRIGE [SRP72]
doa10∆
  protein stability index: 1.44 ± 0.052
pdr5∆
  protein stability index: 1.69 ± 0.054
san1∆
  protein stability index: 2.09 ± 0.12
ubr1∆
  protein stability index: 2.21 ± 0.044

## PLYVMDEIDAALDFRNV [SMC4]
doa10∆
  protein stability index: 2.5 ± 0.059
pdr5∆
  protein stability index: 2.33 ± 0.066
san1∆
  protein stability index: 3.26 ± 0.051
ubr1∆
  protein stability index: 2.51 ± 0.048

## FLKLYVLVKWTRTIKQN [RGR1]
doa10∆
  protein stability index: 1.41 ± 0.11
pdr5∆
  protein stability index: 1.85 ± 0.14
san1∆
  protein stability index: 2.38 ± 0.17
ubr1∆
  protein stability index: 1.15 ± 0.091

## RIRKLTGQNFLTSNISS [REC8]
doa10∆
  protein stability index: 1.6 ± 0.056
pdr5∆
  protein stability index: 1.79 ± 0.05
san1∆
  protein stability index: 1.57 ± 0.093
ubr1∆
  protein stability index: 1.53 ± 0.053

## SEISDGKLKRCSRCGSV [SIN4]
doa10∆
  protein stability index: 3.33 ± 0.17
pdr5∆
  protein stability index: 3.4 ± 0.14
san1∆
  protein stability index: 3.36 ± 0.11
ubr1∆
  protein stability index: 3.59 ± 0.11

## NGDKMPLKFKLGPLSYQ [YJR042W/NUP85]
doa10∆
  protein stability index: 2.94 ± 0.12
pdr5∆
  protein stability index: 3.09 ± 0.096
san1∆
  protein stability index: 3.02 ± 0.096
ubr1∆
  protein stability index: 3.27 ± 0.12

## MSSNTSSVMSSPRVEKR [YOR098C/NUP1]
doa10∆
  protein stability index: 3.18 ± 0.084
pdr5∆
  protein stability index: 3.18 ± 0.093
san1∆
  protein stability index: 3.15 ± 0.078
ubr1∆
  protein stability index: 3.01 ± 0.088

## AAKLRTLDYAERHGYIR [RPL2A]
doa10∆
  protein stability index: 3.38 ± 0.11
pdr5∆
  protein stability index: 3.27 ± 0.14
san1∆
  protein stability index: 2.9 ± 0.16
ubr1∆
  protein stability index: 3.37 ± 0.13

## GSLKLIELLCGLGKSAV [NAS6]
san1∆
  protein stability index: 3.08 ± 0.098

## SYALSMEKDKLKNLLRS [SNU114]
doa10∆
  protein stability index: 2.97 ± 0.25
pdr5∆
  protein stability index: 2.24 ± 0.1
san1∆
  protein stability index: 2.31 ± 0.16
ubr1∆
  protein stability index: 2.68 ± 0.13

## DPKTSLRIVKPTVSLTI [RPC82]
doa10∆
  protein stability index: 2.3 ± 0.095
pdr5∆
  protein stability index: 2.3 ± 0.084
san1∆
  protein stability index: 2.56 ± 0.14
ubr1∆
  protein stability index: 3.34 ± 0.079

## ESMLHLSIWIKNYPEYF [IRR1]
doa10∆
  protein stability index: 2.17 ± 0.046
pdr5∆
  protein stability index: 2.06 ± 0.038
san1∆
  protein stability index: 2.25 ± 0.061
ubr1∆
  protein stability index: 2.2 ± 0.043

## VMWGKVTRTHGNSGVVR [RPL33A]
doa10∆
  protein stability index: 2.83 ± 0.071
pdr5∆
  protein stability index: 2.94 ± 0.075
san1∆
  protein stability index: 2.97 ± 0.051
ubr1∆
  protein stability index: 2.98 ± 0.07

## EIEIEGVMSLLQKSSKS [YAR002W/NUP60]
doa10∆
  protein stability index: 2.99 ± 0.11
pdr5∆
  protein stability index: 3.05 ± 0.16
san1∆
  protein stability index: 3.26 ± 0.09
ubr1∆
  protein stability index: 3.25 ± 0.072

## KIALMNIPKPLNSYHIK [RGR1]
doa10∆
  protein stability index: 1.65 ± 0.033
pdr5∆
  protein stability index: 1.81 ± 0.028
san1∆
  protein stability index: 1.69 ± 0.041
ubr1∆
  protein stability index: 1.83 ± 0.022

## DVKKPFSFGTSQPNNTP [YLR335W/NUP2]
doa10∆
  protein stability index: 2.61 ± 0.096
pdr5∆
  protein stability index: 2.34 ± 0.083
san1∆
  protein stability index: 2.5 ± 0.12
ubr1∆
  protein stability index: 2.15 ± 0.064

## NVQLRDVIATEPQGAVT [SMD3]
doa10∆
  protein stability index: 2.96 ± 0.069
pdr5∆
  protein stability index: 2.98 ± 0.1
san1∆
  protein stability index: 2.39 ± 0.09
ubr1∆
  protein stability index: 2.67 ± 0.071

## SEEKIRDYSKEILGINL [SIR4]
doa10∆
  protein stability index: 3.17 ± 0.14
pdr5∆
  protein stability index: 3.03 ± 0.083
san1∆
  protein stability index: 2.88 ± 0.073
ubr1∆
  protein stability index: 3.06 ± 0.064

## IGLRQFQQIQYENKQLY [POP1]
doa10∆
  protein stability index: 2.84 ± 0.085
pdr5∆
  protein stability index: 2.81 ± 0.061
san1∆
  protein stability index: 2.92 ± 0.048
ubr1∆
  protein stability index: 2.79 ± 0.047

## SSNASFNNQGKLDLFKY [MED1]
doa10∆
  protein stability index: 2.93 ± 0.039
pdr5∆
  protein stability index: 3.03 ± 0.038
san1∆
  protein stability index: 2.71 ± 0.032
ubr1∆
  protein stability index: 3.04 ± 0.041

## GQSINDSLKKLLPQWDD [ARP9]
doa10∆
  protein stability index: 2.88 ± 0.047
pdr5∆
  protein stability index: 2.86 ± 0.044
san1∆
  protein stability index: 2.74 ± 0.045
ubr1∆
  protein stability index: 2.88 ± 0.04

## CCINAAFLALVDAGIAL [RRP46]
doa10∆
  protein stability index: 2.37 ± 0.078
pdr5∆
  protein stability index: 2.88 ± 0.07
san1∆
  protein stability index: 2.06 ± 0.061
ubr1∆
  protein stability index: 2.62 ± 0.051

## FLDSVHKQGSSYVAVLG [POP7]
doa10∆
  protein stability index: 2.6 ± 0.045
pdr5∆
  protein stability index: 2.17 ± 0.037
san1∆
  protein stability index: 2.38 ± 0.057
ubr1∆
  protein stability index: 2.51 ± 0.033

## TRGPFHFRAPSRILYKA [RPL16B]
doa10∆
  protein stability index: 2.3 ± 0.064
pdr5∆
  protein stability index: 2.43 ± 0.045
san1∆
  protein stability index: 2.08 ± 0.068
ubr1∆
  protein stability index: 2.27 ± 0.042

## QKSPKIRDPLTQTGLLQ [RPC82]
doa10∆
  protein stability index: 1.81 ± 0.069
pdr5∆
  protein stability index: 1.74 ± 0.041
san1∆
  protein stability index: 2.02 ± 0.12
ubr1∆
  protein stability index: 1.91 ± 0.046

## AIHIFESYYNWKYNNFL [YML103C/NUP188]
doa10∆
  protein stability index: 2.04 ± 0.13
pdr5∆
  protein stability index: 1.6 ± 0.1
san1∆
  protein stability index: 1.94 ± 0.24
ubr1∆
  protein stability index: 2.62 ± 0.17

## YIEASGREGIWSKTIKA [RPC34]
doa10∆
  protein stability index: 1.78 ± 0.1
pdr5∆
  protein stability index: 2.07 ± 0.16
san1∆
  protein stability index: 2.3 ± 0.17
ubr1∆
  protein stability index: 2.42 ± 0.1

## SKLSEHLNHYILLRYHH [YCG1]
doa10∆
  protein stability index: 2.16 ± 0.067
pdr5∆
  protein stability index: 1.73 ± 0.059
san1∆
  protein stability index: 1.82 ± 0.091
ubr1∆
  protein stability index: 2.02 ± 0.062

## ANEDEEEQLDALECRLA [CSN12]
pdr5∆
  protein stability index: 2.65 ± 0.28

## DNDIMNLGSRTKNNTQA [SSN3]
doa10∆
  protein stability index: 2.91 ± 0.038
pdr5∆
  protein stability index: 2.92 ± 0.038
san1∆
  protein stability index: 2.76 ± 0.028
ubr1∆
  protein stability index: 2.977 ± 0.029

## SGNDSMAGKVLILTSHN [BRR2]
doa10∆
  protein stability index: 2.13 ± 0.058
pdr5∆
  protein stability index: 2.28 ± 0.072
san1∆
  protein stability index: 1.63 ± 0.091
ubr1∆
  protein stability index: 2.36 ± 0.089

## QANIQLYSIREDYELSP [PRE1]
doa10∆
  protein stability index: 2.96 ± 0.1
pdr5∆
  protein stability index: 2.82 ± 0.093
san1∆
  protein stability index: 3.01 ± 0.074
ubr1∆
  protein stability index: 3.46 ± 0.11

## RAINKVLCTRLRLSNFF [SIR2]
doa10∆
  protein stability index: 1.72 ± 0.059
pdr5∆
  protein stability index: 1.3 ± 0.059
san1∆
  protein stability index: 1.18 ± 0.12
ubr1∆
  protein stability index: 1.08 ± 0.034

## IKTFYWLEQFLSCVKND [NUT1]
doa10∆
  protein stability index: 1.31 ± 0.052
pdr5∆
  protein stability index: 1.26 ± 0.038
san1∆
  protein stability index: 1.18 ± 0.061
ubr1∆
  protein stability index: 1.13 ± 0.035

## PTVSLTINLDRFMKGRR [RPC82]
doa10∆
  protein stability index: 2.38 ± 0.083
pdr5∆
  protein stability index: 2.48 ± 0.06
san1∆
  protein stability index: 2.62 ± 0.062
ubr1∆
  protein stability index: 2.63 ± 0.081

## DKLSVSEISDGKLKRCS [SIN4]
doa10∆
  protein stability index: 3.27 ± 0.15
pdr5∆
  protein stability index: 3.38 ± 0.13
san1∆
  protein stability index: 3.15 ± 0.1
ubr1∆
  protein stability index: 3.6 ± 0.11

## ADYWTHAYRDVLAQYHE [SNF6]
doa10∆
  protein stability index: 3.02 ± 0.071
pdr5∆
  protein stability index: 3.23 ± 0.08
san1∆
  protein stability index: 3.06 ± 0.058
ubr1∆
  protein stability index: 2.81 ± 0.049

## IFKIVQSRLMSTSYHLN [MED6]
doa10∆
  protein stability index: 2.25 ± 0.18
pdr5∆
  protein stability index: 2.23 ± 0.13
san1∆
  protein stability index: 1.31 ± 0.096
ubr1∆
  protein stability index: 2.31 ± 0.094

## TRQFEGRSNEIVKTTTK [PRP8]
doa10∆
  protein stability index: 3.14 ± 0.058
pdr5∆
  protein stability index: 3.12 ± 0.07
san1∆
  protein stability index: 2.89 ± 0.055
ubr1∆
  protein stability index: 3 ± 0.044

## GSYIDKKCPFTGLVSIR [RPS11A]
doa10∆
  protein stability index: 2.12 ± 0.07
pdr5∆
  protein stability index: 2.06 ± 0.059
san1∆
  protein stability index: 2.27 ± 0.081
ubr1∆
  protein stability index: 2.2 ± 0.049

## RVSLQDIKDFADKVYTK [QCR2]
doa10∆
  protein stability index: 2.85 ± 0.069
pdr5∆
  protein stability index: 3.07 ± 0.082
san1∆
  protein stability index: 2.62 ± 0.079
ubr1∆
  protein stability index: 2.67 ± 0.076

## FDMTNHYNDSQQLRTWK [SRB8]
doa10∆
  protein stability index: 2.99 ± 0.079
pdr5∆
  protein stability index: 3.01 ± 0.084
san1∆
  protein stability index: 3 ± 0.078
ubr1∆
  protein stability index: 2.9 ± 0.061

## DDYILSGESVMDRDSES [SRB4]
doa10∆
  protein stability index: 3.45 ± 0.19
pdr5∆
  protein stability index: 3.6 ± 0.12
san1∆
  protein stability index: 3.34 ± 0.15
ubr1∆
  protein stability index: 3.21 ± 0.13

## LKEQSEQLKEQMEDMEE [SMC4]
doa10∆
  protein stability index: 3.21 ± 0.079
pdr5∆
  protein stability index: 2.92 ± 0.13
san1∆
  protein stability index: 3.3 ± 0.046
ubr1∆
  protein stability index: 3.14 ± 0.1

## VLTAAGVERLIFYPDEY [PRE3]
doa10∆
  protein stability index: 2.78 ± 0.11
pdr5∆
  protein stability index: 2.94 ± 0.093
san1∆
  protein stability index: 2.9 ± 0.074
ubr1∆
  protein stability index: 2.95 ± 0.11

## FQIPTNLDAAAAGTSQA [RPC10]
doa10∆
  protein stability index: 2.44 ± 0.14
pdr5∆
  protein stability index: 2.83 ± 0.09
san1∆
  protein stability index: 2.65 ± 0.095
ubr1∆
  protein stability index: 2.66 ± 0.085

## SLLLTNVIITGSTSLIE [ARP7]
doa10∆
  protein stability index: 1.54 ± 0.033
pdr5∆
  protein stability index: 1.6 ± 0.034
san1∆
  protein stability index: 1.66 ± 0.051
ubr1∆
  protein stability index: 1.39 ± 0.028

## GLKFASFIFQYYGLVID [PRP8]
doa10∆
  protein stability index: 1.73 ± 0.2
pdr5∆
  protein stability index: 1.27 ± 0.18
san1∆
  protein stability index: 1.14 ± 0.27

## SVPLRKGDRALLVKLSK [BRR2]
doa10∆
  protein stability index: 2.46 ± 0.17
pdr5∆
  protein stability index: 3.33 ± 0.18
san1∆
  protein stability index: 3.06 ± 0.094
ubr1∆
  protein stability index: 2.99 ± 0.15
